The test addresses recombinant human calmodulin (human, UniProt P0DP23 1-149). Kind of test: ITC. On the technique in general: Isothermal titration calorimetry measures the heat released or taken up as one component is titrated into another.

As usually defined, the Kd is a measure of binding affinity in units of concentration. Broadly, the stoichiometry N is a count of units in the complex or per binding partner. Regarding Ac-EDLSSSYYRDYVKKILKKKK-NH2 [CaMBP0 peptide of zebrafish STRA6], the Kd was 2560 ± 722 nM, the dH was -7.8 ± 0.8 kcal/mol and the “stoichiometry N” value stood at 1.01 ± 0.07 sites.

Source of the values: paper PMC5114850 (Science (New York, N.Y.), 2016).
